The values below come from patent publication US20230346885A1 (published 2023).

Numbering of substitutions follows the chain as printed.

Test in all cases: binding, other
In one assay the target is T1, PAGE2 peptide on HLA (human).
T1 peptide: IMPTFDLTKV

Assay [1] concerns the target T2, SAGE1 peptide on HLA (human).
T2 peptide: TVLPGLTYL

Assay [2] deals with T3, SAGE1 peptide on HLA (human).
T3 peptide: VLIQQLEKA

In assay [3] the target is T4, RLN1 peptide on HLA (human).
T4 peptide: LLLNQFSRA

The target of a further assay is T5, PAEP peptide on HLA (human).
T5 peptide: AMATNNISL

The target of assay [4] is T6, RLN1 peptide on HLA (human).
T6 peptide: FIANLPPELKA

The next assay has as its target T7, PAGE5 peptide on HLA (human).
T7 peptide: TLPTFDPTKV

In another assay the target is T8, NR0B1 peptide on HLA (human).
T8 peptide: GLPGGRPVAL

Assay [5] concerns the target T9, SAGE1 peptide on HLA (human).
T9 peptide: GLYSTVPHNV

B1: TCR of SEQ ID NOs 489 and 490 (TCR, V domains shown)
Valpha: KQEVTQIPAALSVPEGENLVLNCSFTDSAIYNLQWFRQDPGKGLTSLLLIQSSQREQTSGRLNASLDKSSGRSTLYIAASQPGDSATYLCAVRGDYKLSFGAGTTVTVRA
Vbeta: NAGVTQTPKFQVLKTGQSMTLQCAQDMNHNSMYWYRQDPGMGLRLIYYSASEGTTDKGEVPNGYNVSRLNKREFSLRLESAAPSQTSVYFCASSDPLGGLYGYTFGSGTRLTVV
B1: the binding result in the assay with PAGE2 peptide on HLA is recorded as “recognises”.

B2: TCR of SEQ ID NOs 543 and 544 (TCR, V domains shown)
Valpha: B1 Valpha with R93G, G94D
Vbeta: B1 Vbeta with D95E, P96G, L97W, L100R, Y101T, G102E, Y103A, T104F, S107Q
Turning to B2, the binding result with SAGE1 peptide on HLA [1] is listed as “recognises”.

B3: TCR of SEQ ID NOs 541 and 542 (TCR, V domains shown)
Valpha: B1 Valpha with R93D, G94S, D95W, Y96G, S99Q, T105Q, T107V, R109T, A110P
Vbeta: NAGVTQTPKFQVLKTGQSMTLQCAQDMNHEYMSWYRQDPGMGLRLIHYSVGAGITDQGEVPNGYNVSRSTTEDFPLRLLSAAPSQTSVYFCASSSLGLGDYGYTFGSGTRLTVV
Turning to B3, in the assay with SAGE1 peptide on HLA [1], the binding result was “recognises”.

B4: TCR of SEQ ID NOs 545 and 546 (TCR, V domains shown)
Valpha: B1 Valpha with G94D
Vbeta: NAGVTQTPKFRVLKTGQSMTLLCAQDMNHEYMYWYRQDPGMGLRLIHYSVGEGTTAKGEVPDGYNVSRLKKQNFLLGLESAAPSQTSVYFCASSYGPGQIYGYTFGSGTRLTVV
Take B4: the binding result with SAGE1 peptide on HLA [2] is on record as “recognises”.

B5: TCR of SEQ ID NOs 531 and 532 (TCR, V domains shown)
Valpha: KQEVTQIPAALSVPEGENLVLNCSFTDSAIYNLQWFRQDPGKGLTSLLLIQSSQREQTSGRLNASLDKSSGRSTLYIAASQPGDSATYLCAVLSNFGNEKLTFGTGTRLTIIP
Vbeta: NAGVTQTPKFRILKIGQSMTLQCTQDMNHNYMYWYRQDPGMGLKLIYYSVGAGITDKGEVPNGYNVSRSTTEDFPLRLLSAAPSQTSVYFCASTREAGLDYGYTFGSGTRLTVV
Consider B5, for which the binding result in the assay with RLN1 peptide on HLA [3] was “recognises”.

B6: TCR of SEQ ID NOs 465 and 466 (TCR, V domains shown)
Valpha: KQEVTQIPAALSVPEGENLVLNCSFTDSAIYNLQWFRQDPGKGLTSLLLIQSSQREQTSGRLNASLDKSSGRSTLYIAASQPGDSATYLCAVRSYNQFYFGTGTSLTVIP
Vbeta: NAGVTQTPKFQVLKTGQSMTLQCAQDMNHEYMSWYRQDPGMGLRLIHYSVGAGITDQGEVPNGYNVSRSTTEDFPLRLLSAAPSQTSVYFCASSPGGPSTEAFFGQGTRLTVV
With B6, in the assay with PAEP peptide on HLA, the binding result was “recognises”.

B7: TCR of SEQ ID NOs 515 and 516 (TCR, V domains shown)
Valpha: B6 Valpha with R93V, Y95N, Q97D, F98M, Y99R, T102A, S105R, I109K
Vbeta: NAGVTQTPKFQVLKTGQSMTLQCAQDMNHEYMSWYRQDPGMGLRLIHYSVGAGITDQGEVPNGYNVSRSTTEDFPLRLLSAAPSQTSVYFCASSLHSPVQGDYGYTFGSGTRLTVV
On to B7, for which the binding result with RLN1 peptide on HLA [4] is “recognises”.

B8: TCR of SEQ ID NOs 491 and 492 (TCR, V domains shown)
Valpha: B5 Valpha with L93S, S94N, N95S, F96G, N98Y, E99Q, L101V, R108K, T110Q, I111V
Vbeta: B6 Vbeta with N62D, P95Y, G96S, G97T, P98G, T100Y, A102Q, F103Y, Q106P, V113T
Turning to B8, the binding result in the assay with PAGE5 peptide on HLA is recorded as “recognises”.

B9: TCR of SEQ ID NOs 493 and 494 (TCR, V domains shown)
Valpha: B5 Valpha with L93G, S94N, N95S, F96G, N98Y, E99Q, L101V, R108K, T110Q, I111V
Vbeta: B6 Vbeta with P95Y, G96S, G97T, P98G, T100Y, A102Q, F103Y, Q106P, V113T
B9: in the assay with PAGE5 peptide on HLA, the binding result is reported as “recognises”.

B10: TCR of SEQ ID NOs 495 and 496 (TCR, V domains shown)
Valpha: B5 Valpha with L93G, S94N, N95S, F96G, N98Y, E99Q, L101V, R108K, T110Q, I111V
Vbeta: B6 Vbeta with P95Y, G96S, G97T, P98G, T100Y, E101G, A102Y, F103T, Q106S
B10: the binding result with PAGE5 peptide on HLA is reported as “recognises”.

B11: TCR of SEQ ID NOs 459 and 460 (TCR, V domains shown)
Valpha: KQEVTQIPAALSVPEGENLVLNCSFTDSAIYNLQWFRQDPGKGLTSLLLIQSSQREQTSGRLNASLDKSSGRSTLYIAASQPGDSATYLCAASGYSTLTFGKGTMLLVSP
Vbeta: NAGVTQTPKFQVLKTGQSMTLQCAQDMNHEYMSWYRQDPGMGLRLIHYSVGAGITDQGEVPNGYNVSRSTTEDFPLRLLSAAPSQTSVYFCASRLGQFGQAFFGQGTRLTVV
Regarding B11, in the assay with NR0B1 peptide on HLA, the binding result is on record as “recognises”.

B12: TCR of SEQ ID NOs 517 and 518 (TCR, V domains shown)
Valpha: B11 Valpha with A92P, S93G, S96Q, T97K, L98V, K102T, M105K, L107Q, S109I
Vbeta: B11 Vbeta with L95R, G96D, Q97P, F98L, Q100G, A101Y, F102T, Q105S
B12: in the assay with RLN1 peptide on HLA [4], the binding result is “recognises”.

B13: TCR of SEQ ID NOs 529 and 530 (TCR, V domains shown)
Valpha: KQEVTQIPAALSVPEGENLVLNCSFTDSAIYNLQWFRQDPGKGLTSLLLIQSSQREQTSGRLNASLDKSSGRSTLYIAASQPGDSATYLCAVRPSTDSWGKLQFGAGTQVVVTP
Vbeta: B11 Vbeta with R94S, L95P, G96T, Q97G, F98Y, G99Y, Q100G, A101Y, F102T, Q105S
Consider B13, for which, in the assay with RLN1 peptide on HLA [3], the binding result is listed as “recognises”.

B14: TCR of SEQ ID NOs 537 and 538 (TCR, V domains shown)
Valpha: B6 Valpha with R93G, S94G, N96D, Q97K, F98V, Y99I, T102P, T107S
Vbeta: B11 Vbeta
With B14, in the assay with SAGE1 peptide on HLA [5], the binding result is recorded as “recognises”.

B15: TCR of SEQ ID NOs 527 and 528 (TCR, V domains shown)
Valpha: KQEVTQIPAALSVPEGENLVLNCSFTDSAIYNLQWFRQDPGKGLTSLLLIQSSQREQTSGRLNASLDKSSGRSTLYIAASQPGDSATYLCAVRPSGSARQLTFGSGTQLTVLP
Vbeta: B11 Vbeta with R94S, L95Y, Q97V, F98Y, G99T, Q100E
Turning to B15, the binding result in the assay with RLN1 peptide on HLA [3] is recorded as “recognises”.

B16: TCR of SEQ ID NOs 533 and 534 (TCR, V domains shown)
Valpha: B11 Valpha with A92V
Vbeta: B11 Vbeta with R94S, L95E, Q97P, G99S, Q100E
On to B16, for which, in the assay with SAGE1 peptide on HLA [5], the binding result is “recognises”.

B17: TCR of SEQ ID NOs 535 and 536 (TCR, V domains shown)
Valpha: B6 Valpha with R93G, S94G, N96Q, Q97K, F98V, Y99T, S105K, T107Q
Vbeta: NAGVTQTPKFRVLKTGQSMTLLCAQDMNHNYMYWYRQDPGMGLKLIYYSVGAGITDKGEVPNGYNVSRSTTEDFPLRLELAAPSQTSVYFCASRVDTLGEAFFGQGTRLTVV
As for B17, the binding result in the assay with SAGE1 peptide on HLA [5] was “recognises”.

B18: TCR of SEQ ID NOs 485 and 486 (TCR, V domains shown)
Valpha: B15 Valpha with P94L, S95R
Vbeta: NAGVTQTPKFRVLKTGQSMTLLCAQDMNHEYMYWYRQDPGMGLRLIHYSVGEGTTAKGEVPDGYNVSRLKKQNFLLGLESAAPSQTSVYFCASSYSIEFTEAFFGQGTRLTVV
As to B18, the binding result with PAGE2 peptide on HLA was “recognises”.

B19: TCR of SEQ ID NOs 487 and 488 (TCR, V domains shown)
Valpha: B15 Valpha with V92L, R93G, P94Y, S95R
Vbeta: NAGVTQTPKFRVLKTGQSMTLLCAQDMNHEYMYWYRQDPGMGLRLIHYSVGEGTTAKGEVPDGYNVSRLNKREFSLRLESAAPSQTSVYFCASSVGYPGELFFGEGSRLTVL
Turning to B19, in the assay with PAGE2 peptide on HLA, the binding result is given as “recognises”.

B20: TCR of SEQ ID NOs 463 and 464 (TCR, V domains shown)
Valpha: KQEVTQIPAALSVPEGENLVLNCSFTDSAIYNLQWFRQDPGKGLTSLLLIQSSQREQTSGRLNASLDKSSGRSTLYIAASQPGDSATYLCAVQGGSEKLVFGKGTKLTVNP
Vbeta: NAGVTQTPKFQVLKTGQSMTLQCAQDMNHNSMYWYRQDPGMGLRLIYYSASEGTTDKGEVPNGYNVSRLNKREFSLRLESAAPSQTSVYFCASSEEWSYGYTFGSGTRLTVV
As to B20, the binding result with PAEP peptide on HLA is on record as “recognises”.

B21: TCR of SEQ ID NOs 461 and 462 (TCR, V domains shown)
Valpha: KQEVTQIPAALSVPEGENLVLNCSFTDSAIYNLQWFRQDPGKGLTSLLLIQSSQREQTSGRLNASLDKSSGRSTLYIAASQPGDSATYLCAVSRSWGKFQFGAGTQVVVTP
Vbeta: NAGVTQTPKFQVLKTGQSMTLQCAQDMNHEYMSWYRQDPGMGLRLIHYSVGAGITDQGEVPNGYNVSRLNKREFSLRLESAAPSQTSVYFCASSLTGGAEYGYTFGSGTRLTVV
Consider B21, for which the binding result in the assay with PAEP peptide on HLA is “recognises”.

B22: TCR of SEQ ID NOs 539 and 540 (TCR, V domains shown)
Valpha: KQEVTQIPAALSVPEGENLVLNCSFTDSAIYNLQWFRQDPGKGLTSLLLIQSSQREQTSGRLNASLDKSSGRSTLYIAASQPGDSATYLCAVRVTGANNLFFGTGTRLTVIP
Vbeta: NAGVTQTPKFQVLKTGQSMTLQCAQDMNHEYMSWYRQDPGMGLRLIHYSVGAGITDQGEVPNGYNVSRLNKREFSLRLESAAPSQTSVYFCASRPVGGDYTGELFFGEGSRLTVL
B22: the binding result in the assay with SAGE1 peptide on HLA [1] is given as “recognises”.

B23: TCR of SEQ ID NOs 519 and 520 (TCR, V domains shown)
Valpha: KQEVTQIPAALSVPEGENLALNCSFTDSAIYNLQWFRQDPGKGLTSLLLIQSSQREQTSGRLNASLDKSSGRSTLYIAASQPGDSATYLCAVNAGGTSYGKLTFGQGTILTVHP
Vbeta: NAGVTQTPKFQVLKTGQSMTLQCAQDMNHNSMYWYRQDPGMGLRLIYYSASEGTTDKGEVPNGYNVSRLNKREFSLRLESAAPSQTSVYFCASSYWREYYEQYFGPGTRLTVT
Consider B23, for which the binding result with RLN1 peptide on HLA [4] is “recognises”.
